From US20240166755A1, “CHIMERIC ANTIGEN RECEPTORS TARGETING CANCER” (University of Southern California, priority 2016, published 2024)
“Also recorded” adds a separate entry of the source.

Assays:
[1] = system: MPL-expressing HEL.92.1.7 (HEL) cells; assay: Jurkat-NFAT-EGFP reporter assay, co-culture with HEL cells (Table 25); assay type: cell-based, human; details: FACS
Source text: (§1) Cells were subsequently co-cultured with MPL-expressing HEL.92.1.7 (HEL) cells. […] CAR construct with HEL cells. The experiment was repeated by co-culturing the Jurkat-NFAT-EGFP cells with either RAJI cells, which have weak MPL expression, or with RAJI-MPL cells that were engineered to ectopically express human MPL receptor.

[2] = system: HEL cells stably expressing GLuc; assay: GLuc cell death assay, HEL-GLuc target cells
Description: The blood samples to isolate Peripheral blood mononuclear cells (PBMCs) were obtained from healthy de-identified adult donors. PBMC were isolated from buffy coats by Ficoll-Hypaque gradient centrifugation and re-suspended in XVIVO medium (Lonza) supplanted with 10 ng/ml soluble anti-CD3, 10 ng/ml soluble anti-CD28 and 100 IU recombinant human-IL2. […] The PBMC expressing the indicated CARs and uninfected PBMC were co-cultured with HEL-GLuc target cells for 4 h and lysis of target cells measured by the single-step homogenous GLuc assay by injecting 0.5× CTZ assay buffer as described above.
Cells were selected with puromycin and expanded.
Cells were subsequently co-cultured overnight with HEL.92.1.7 cells that had been engineered to express GLuc.

[3] = system: Jurkat cells stably expressing MPL and GLuc; assay: GLuc cell death assay, Jurkat-MPL-GLuc target cells; details: T cells, puromycin selected, E:T 10:1, 4 hours
RAJI-MPL cells = assay: Jurkat-NFAT-EGFP reporter assay, co-culture with RAJI-MPL or RAJI-vector cells (Table 25); assay type: cell-based, human; details: RAJI-MPL cells compared with RAJI-vector cells
Source text: as §1

[4] = system: target cells expressing their respective target antigen; assay: Jurkat-NFAT-GFP assay, co-culture with target cells expressing the respective target antigen (Table 28); details: Jurkat-NFAT-GFP cells expressing the CAR; cell line(s) giving greater % GFP positive cells than parental
[5] = system: RAJI cells stably expressing GLuc; assay: GLuc cell death assay, RAJI-GLuc target cells
Source text: Cells were left unselected or selected with puromycin and expanded.

B1: CD8SP-175-(vL-vH)-Myc-CD28z-T2A-PAC(031615-Q04): CAR construct targeting MPL, 175 scFv, CD28 costimulatory domain (protein)
chain: MALPVTALLLPLALLLHAARPDQIVLTQSPAIMSASPGEKVTISCSASSSVSYMYWYQQKPGSSPKPWIYRTSNLASGVPARFSGSGSGTSYSLTISNMEAEDAAAYYCQQYHSYPTTFGGGTKLEVKGGGGSGGGGSGGGGSEVQLVESGGGLVQPKGSLKLSCAASGFSFNTYAMNWVRQAPGKGLEWIAHIRSKSNNFATYYADSVKDRFSISRDASENILFLQMNNLKTEDTAMYYCVRQGGDFPMDYWGQGTSVTVSSTREQKLISEEDLKIEVMYPPPYLDNEKSNGTIIHVKGKHLCPSPLFPGPSKPFWVLVVVGGVLACYSLLVTVAFIIFWVRSKRSRLLHSDYMNMTPRRPGPTRKHYQPYAPPRDFAAYRSRVKFSRSADAPAYQQGQNQLYNELNLGRREEYDVLDKRRGRDPEMGGKPRRKNPQEGLYNELQKDKMAEAYSEIGMKGERRRGKGHDGLYQGLSTATKDTYDALHMQALPPRSSGSGEGRGSLLTCGDVEENPGPHMTEYKPTVRLATRDDVPRAVRTLAAAFADYPATRHTVDPDRHIERVTELQELFLTRVGLDIGKVWVADDGAAVAVWTTPESVEAGAVFAEIGPRMAELSGSRLAAQQQMEGLLAPHRPKEPAWFLATVGVSPDHQGKGLGSAVVLPGVEAAERAGVPAFLETSAPRNLPFYERLGFTVTADVEVPEGPRTWCMTRKPGA
modifications: listed as DNA
notes: CAR construct targeting MPL, 175 scFv, CD28 costimulatory domain
EGFP expression (NFAT-EGFP reporter) [1]: strongest | killing of HEL-GLuc cells ([2]; CAR-expressing PBMC, 4 h, versus uninfected PBMC): increased killing | GLuc activity (lysis of target cells) ([2]; T cells, puromycin selected, E:T 10:1, 4 hours): stronger | GLuc activity (lysis of target cells) [3]: stronger | EGFP expression (NFAT-EGFP reporter) (RAJI-MPL cells): strongest

B2: CD8SP-CD324-hSC10-17-(vL-vH)-Myc-BBz-T2A-PAC(052516-A07)[SEQ ID NO: 1555] (protein)
chain: MALPVTALLLPLALLLHAARPDVVMTQSPLSLPVTLGQPASISCRSSQSIVHSDGNTYLEWYQQRPGQSPRRLIYKVSNRFSGVPDRFSGSGSGTDFTLKISRVEAEDVGVYYCFQGSHAPWTFGGGTKVEIKGGGGSGGGGSGGGGSEVQLVESGGGLVQPGGSLRLSCAASGFTFSSYGMHWVRQAPGKGLEWVAYITTRSSTIYYADSVKGRFTISRDNAKNSLYLQMNSLRAEDTAVYYCTREPLTGYYAMDYWGQGTSVTVSSTREQKLISEEDLAKPTTTPAPRPPTPAPTIASQPLSLRPEACRPAAGGAVHTRGLDFACDIYIWAPLAGTCGVLLLSLVITLYCKRGRKKLLYIFKQPFMRPVQTTQEEDGCSCRFPEEEEGGCELRVKFSRSADAPAYQQGQNQLYNELNLGRREEYDVLDKRRGRDPEMGGKPRRKNPQEGLYNELQKDKMAEAYSEIGMKGERRRGKGHDGLYQGLSTATKDTYDALHMQALPPRSSGSGEGRGSLLTCGDVEENPGPHMTEYKPTVRLATRDDVPRAVRTLAAAFADYPATRHTVDPDRHIERVTELQELFLTRVGLDIGKVWVADDGAAVAVWTTPESVEAGAVFAEIGPRMAELSGSRLAAQQQMEGLLAPHRPKEPAWFLATVGVSPDHQGKGLGSAVVLPGVEAAERAGVPAFLETSAPRNLPFYERLGFTVTADVEVPEGPRTWCMTRKPGA
modifications: listed as DNA
Positive Cell Line on co-culture assay [4]: MDAMB-231

B3: CD8SP-CD19Bu12-(vL-vH)-Myc-BBz-T2A-PAC(082815-P08): CD19 CAR with scFv from humanized CD19 antibody huCD19-Bu12, 41BB and CD3z (protein)
chain: MALPVTALLLPLALLLHAARPDEIVLTQSPATLSLSPGERATLSCSASSSVSYMHWYQQKPGQAPRLLIYDTSKLASGIPARFSGSGSGTDFTLTISSLEPEDVAVYYCFQGSVYPFTFGQGTKLEIKRGGGGSGGGGSGGGGSQVQLQESGPGLVKPSQTLSLTCTVSGGSISTSGMGVGWIRQHPGKGLEWIGHIWWDDDKRYNPALKSRVTISVDTSKNQFSLKLSSVTAADTAVYYCARMELWSYYFDYWGQGTLVTVSSTREQKLISEEDLAKPTTTPAPRPPTPAPTIASQPLSLRPEACRPAAGGAVHTRGLDFACDIYIWAPLAGTCGVLLLSLVITLYCKRGRKKLLYIFKQPFMRPVQTTQEEDGCSCRFPEEEEGGCELRVKFSRSADAPAYQQGQNQLYNELNLGRREEYDVLDKRRGRDPEMGGKPRRKNPQEGLYNELQKDKMAEAYSEIGMKGERRRGKGHDGLYQGLSTATKDTYDALHMQALPPRSSGSGEGRGSLLTCGDVEENPGPHMTEYKPTVRLATRDDVPRAVRTLAAAFADYPATRHTVDPDRHIERVTELQELFLTRVGLDIGKVWVADDGAAVAVWTTPESVEAGAVFAEIGPRMAELSGSRLAAQQQMEGLLAPHRPKEPAWFLATVGVSPDHQGKGLGSAVVLPGVEAAERAGVPAFLETSAPRNLPFYERLGFTVTADVEVPEGPRTWCMTRKPGA
modifications: listed as DNA
cell death (increase in Gluc activity) ([5]; RAJI-pLenti-Gluc cells incubated with the CAR-T cells): significant induction of cell death | GLuc activity (lysis of target cells) ([5]; T cells with or without puromycin selection, E:T 10:1, 96 hours): increase in GLuc activity

B4: CD8SP-DLL3-hSC16-13-(vL-vH)-Myc-BBz-T2A-PAC(052516-D07)[SEQ ID NO: 1584] (protein)
chain: MALPVTALLLPLALLLHAARPDIQMTQSPSSLSASVGDRVTITCSASSSVSYMYWYQQKPGKAPKLLIYLTSNLASGVPSRFSGSGSGTDFTLTISSLQPEDFATYYCQQWRSNPFTFGQGTKLEIKRGGGGSGGGGSGGGGSQITLKESGPTLVKPTQTLTLTCTFSGFSLSTSGMGVGWIRQPPGKALEWLAHIWWDDVKRYSPSLKSRLTITKDTSKNQVVLTMTNMDPVDTATYYCARIVSFDNDVVSAMDYWGQGTLVTVSSTREQKLISEEDLAKPTTTPAPRPPTPAPTIASQPLSLRPEACRPAAGGAVHTRGLDFACDIYIWAPLAGTCGVLLLSLVITLYCKRGRKKLLYIFKQPFMRPVQTTQEEDGCSCRFPEEEEGGCELRVKFSRSADAPAYQQGQNQLYNELNLGRREEYDVLDKRRGRDPEMGGKPRRKNPQEGLYNELQKDKMAEAYSEIGMKGERRRGKGHDGLYQGLSTATKDTYDALHMQALPPRSSGSGEGRGSLLTCGDVEENPGPHMTEYKPTVRLATRDDVPRAVRTLAAAFADYPATRHTVDPDRHIERVTELQELFLTRVGLDIGKVWVADDGAAVAVWTTPESVEAGAVFAEIGPRMAELSGSRLAAQQQMEGLLAPHRPKEPAWFLATVGVSPDHQGKGLGSAVVLPGVEAAERAGVPAFLETSAPRNLPFYERLGFTVTADVEVPEGPRTWCMTRKPGA
modifications: listed as DNA
Positive Cell Line on co-culture assay [4]: LAN5, SKMEL31,; also recorded: SKMEL317
